The source of these data is patent publication US20140178375A1 (TRUSTEES OF THE UNIVERSITY PF PENNSYLVANIA, published 2014).

For experiment [1], the target named is T1, human EGFR on NE91 cells (human, UniProt P00533 25-1210).
T1 construct: whole, on cells; also called epidermal growth factor receptor
In words: FACS, 100 ug S22-Fc on 1x10^5 cells, anti-His detection. The method, then:
FACS analysis was used to detect binding of S22-Fc to HER2-expressing cell lines. Purified S22-Fc was used in FACS experiments to stain cells with different expression levels of HER2 and EGFR. Initially, 1×10⁵ cells were incubated with 100 μg S22-Fc for 30 minutes on ice. The cells were then washed and incubated with his-tag-specific rabbit antisera and secondary Alexa488-conjugated anti-rabbit antibodies, used sequentially. As a negative control, parallel cell preparations were exposed to only his-tag-specific rabbit antisera and secondary antibodies.
A general note: Flow cytometry measures light scatter and fluorescence of single cells or particles in a stream.

Experiment [2] addresses T2, human HER2 on T6-17 cells (human, UniProt P04626 23-1255).
T2 construct: whole, on cells; also called HER2/neu; human epidermal growth factor receptor 2
In words: FACS on T6-17 cells expressing human HER2, detected by anti-his tag and secondary antibodies; control (anti-his tag and secondary antibodies only) has Geo mean 3.99.

Experiment [3] addresses T1, human EGFR on NE91 cells. In words: FACS on NE91 cells.
Experiment [4] deals with T2, human HER2 on T6-17 cells. In words: FACS on T6-17 cells.

B1: S22-Fc (Fc fusion)
chain: MAYCFPDEEGACYGGGGGSDKTHTCPPCPAPELLGGPSVFLFPPKPKDTLMISRTPEVTCVVVDVSHEDPEVKFNWYVDGVEVHNAKTKPREEQYNSTYRVVSVLTVLHQDWLNGKEYKCKVSNKALPAPIEKTISKAKGQPREPQVYTLPPSRDELTKNQVSLTCLVKGFYPSDIAVEWESNGQPENNYKTTPPVLDSDGSFFLYSKLTVDKSRWQQGNVFSCSVMHEALHNHYTQKSLSLSLEHHHHHH
notes: S22 peptide, glycine-serine linker, human IgG1 Fc (hinge part, CH2, CH3) and C-terminal His tag; Expressed in E. coli and purified on Ni-sepharose; also called S22-Fc fusion protein
In the case of B1, in the experiment with human EGFR on NE91 cells [1], the binding result is “binds”. Also, the “FACS Geo mean” value in experiment [2] turned out to be 27.2.

B2: S22-FcT322A (Fc fusion)
chain: MAYCFPDEEGACYGGGGGSDKTHTCPPCPAPELLGGPSVFLFPPKPKDTLMISRTPEVTCVVVDVSHEDPEVKFNWYVDGVEVHNAKTKPREEQYNSAYRVVSVLTVLHQDWLNGKEYKCKVSNKALPAPIEKTISKAKGQPREPQVYTLPPSRDELTKNQVSLTCLVKGFYPSDIAVEWESNGQPENNYKTTPPVLDSDGSFFLYSKLTVDKSRWQQGNVFSCSVMHEALHNHYTQKSLSLSLEHHHHHH
In the case of B2, the binding result (with human EGFR on NE91 cells [3]; in experiment [4]) was “binds” each time.

B3: LS22FcT322AG7 (Fc fusion)
chain: MLCGGGGYCFPDEEGACYGGGGGSDKTHTCPPCPAPELLGGPSVFLFPPKPKDTLMISRTPEVTCVVVDVSHEDPEVKFNWYVDGVEVHNAKTKPREEQYNSAYRVVSVLTVLHQDWLNGKEYKCKVSNKALPAPIEKTISKAKGQPREPQVYTLPPSRDELTKNQVSLTCLVKGFYPSDIAVEWESNGQPENNYKTTPPVLDSDGSFFLYSKLTVDKSRWQQGNVFSCSVMHEALHNHYTQKSLSLSLEHHHHHH
notes: It has the N-terminal MLCGGGG before the S22 peptide, the T322A Fc and a His tag; also called S22-FcT322A#2; S22FcT322A#2
In the case of B3, the binding result with human EGFR on NE91 cells [3] is reported as “binds”. Also, the “FACS Geo mean” value in experiment [2] worked out at 39.1.

B4: LS22FcG7 (Fc fusion)
chain: MLCGGGGYCFPDEEGACYGGGGGSDKTHTCPPCPAPELLGGPSVFLFPPKPKDTLMISRTPEVTCVVVDVSHEDPEVKFNWYVDGVEVHNAKTKPREEQYNSTYRVVSVLTVLHQDWLNGKEYKCKVSNKALPAPIEKTISKAKGQPREPQVYTLPPSRDELTKNQVSLTCLVKGFYPSDIAVEWESNGQPENNYKTTPPVLDSDGSFFLYSKLTVDKSRWQQGNVFSCSVMHEALHNHYTQKSLSLSLEHHHHHH
notes: Wild type Fc fragment with the N-terminal MLCGGGG before the S22 peptide, and a His tag
Take B4: the “FACS Geo mean” value in experiment [2] was found to be 51.

B5: LS22FcT322AS7 (Fc fusion)
S22 peptide-Fc fusion chain with C-terminal His tag: MLCGGGSYCFPDEEGACYGGGGGSDKTHTCPPCPAPELLGGPSVFLFPPKPKDTLMISRTPEVTCVVVDVSHEDPEVKFNWYVDGVEVHNAKTKPREEQYNSAYRVVSVLTVLHQDWLNGKEYKCKVSNKALPAPIEKTISKAKGQPREPQVYTLPPSRDELTKNQVSLTCLVKGFYPSDIAVEWESNGQPENNYKTTPPVLDSDGSFFLYSKLTVDKSRWQQGNVFSCSVMHEALHNHYTQKSLSLSLEHHHHHH
B5: the “FACS Geo mean” value in experiment [2] was 28.7.
